This is an account of results in the supplement of paper PMC10567573.

B1: MYBL2 (parent)
chain: FPNRTDQQCQYRWLRVLNPDLVKG
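Further: lentivirally expressed fusions sorted by FACS into six bins by GFP to DsRed ratio, PSI derived from sequencing read proportions per bin multiplied by bin number.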

Variants of B1 are the subject of the data set. As to the kind of experiment: protein stability index of a GFP-peptide fusion (GPS, HEK-293T) (PSI 1-6); higher = more stable. To be noted: c terminus: a fixed tail appended.
Turning to FPNRTDQACQYRWLRVLNPDLVKG, the protein stability index is 1.38.
FPNRTDQNCQYRWLRVLNPDLVKG: the protein stability index was found to be 2.
On to FPNRTDQWCQYRWLRVLNPDLVKG, for which the protein stability index came out at 1.97.
Consider FPNRTDQHCQYRWLRVLNPDLVKG, for which the protein stability index was 2.37.
For FPNRTDQYCQYRWLRVLNPDLVKG, the protein stability index came out at 1.88.
For FPNRTDQFCQYRWLRVLNPDLVKG, the protein stability index is 1.71.
With FPNRTDQRCQYRWLRVLNPDLVKG the figure was 1.96; with FPNRTDQPCQYRWLRVLNPDLVKG, 2.09.
With FPNRTDQSCQYRWLRVLNPDLVKG the figure was 1.83; with FPNRTDQKCQYRWLRVLNPDLVKG, 1.97; with FPNRTDQMCQYRWLRVLNPDLVKG, 1.83.
With FPNRTDQVCQYRWLRVLNPDLVKG, the protein stability index was found to be 2.05.
With FPNRTDQICQYRWLRVLNPDLVKG the figure was 2.01; with FPNRTDQGCQYRWLRVLNPDLVKG, 1.34; with FPNRTDQLCQYRWLRVLNPDLVKG, 1.68.
With FPNRTDQTCQYRWLRVLNPDLVKG the figure was 1.82; with FPNRTDQECQYRWLRVLNPDLVKG, 2.01.
For the variant FPNRTDQCCQYRWLRVLNPDLVKG, the protein stability index was 1.42.
With FPNRTDQDCQYRWLRVLNPDLVKG the figure was 2.09; with FPNRTDQQCQYRGLRVLNPDLVKG, 3.56; with FPNRTDQQCQYRHLRVLNPDLVKG, 2.56.
The result for FPNRTDQQCQYRSLRVLNPDLVKG reads 3.03.
For FPNRTDQQCQYRNLRVLNPDLVKG, the protein stability index is 2.81.
The result for FPNRTDQQCQYRYLRVLNPDLVKG reads 2.26; that for FPNRTDQQCQYRPLRVLNPDLVKG, 3.71; that for FPNRTDQQCQYRTLRVLNPDLVKG, 2.52.
With FPNRTDQQCQYRLLRVLNPDLVKG the figure was 2.08; with FPNRTDQQCQYRILRVLNPDLVKG, 1.91; with FPNRTDQQCQYRVLRVLNPDLVKG, 2.39.
Turning to FPNRTDQQCQYRFLRVLNPDLVKG, the protein stability index was found to be 2.75.
Turning to FPNRTDQQCQYRELRVLNPDLVKG, the protein stability index was 3.26.
Turning to FPNRTDQQCQYRKLRVLNPDLVKG, the protein stability index stood at 3.05.
With FPNRTDQQCQYRCLRVLNPDLVKG the figure was 2.01.
For FPNRTDQQCQYRMLRVLNPDLVKG, the protein stability index came to 2.27.
With FPNRTDQQCQYRDLRVLNPDLVKG the figure was 2.98; with FPNRTDQQCQYRQLRVLNPDLVKG, 3.1.
For FPNRTDQQCQYRALRVLNPDLVKG, the protein stability index came to 2.59.
The result for FPNRTDQQCAYRWLRVLNPDLVKG reads 1.45; that for FPNRTDQQCRYRWLRVLNPDLVKG, 1.52.
Turning to FPNRTDQQCLYRWLRVLNPDLVKG, the protein stability index was 2.34.
As for FPNRTDQQCHYRWLRVLNPDLVKG, the protein stability index is 2.35.
On to FPNRTDQQCIYRWLRVLNPDLVKG, for which the protein stability index is 1.79.
As for FPNRTDQQCMYRWLRVLNPDLVKG, the protein stability index amounted to 1.47.
The result for FPNRTDQQCYYRWLRVLNPDLVKG reads 1.79; that for FPNRTDQQCEYRWLRVLNPDLVKG, 2.23; that for FPNRTDQQCKYRWLRVLNPDLVKG, 1.88.
With FPNRTDQQCWYRWLRVLNPDLVKG the figure was 2.4; with FPNRTDQQCNYRWLRVLNPDLVKG, 1.76; with FPNRTDQQCCYRWLRVLNPDLVKG, 2.83.
The result for FPNRTDQQCDYRWLRVLNPDLVKG reads 2.04; that for FPNRTDQQCVYRWLRVLNPDLVKG, 1.81; that for FPNRTDQQCPYRWLRVLNPDLVKG, 2.18.
As for FPNRTDQQCTYRWLRVLNPDLVKG, the protein stability index is 1.93.
Consider FPNRTDQQCSYRWLRVLNPDLVKG, for which the protein stability index was determined as 2.48.
Take FPNRTDQQCFYRWLRVLNPDLVKG: the protein stability index is 1.75.
Consider FPNRTDQQCGYRWLRVLNPDLVKG, for which the protein stability index came to 1.48.
Turning to FPNRTDEQCQYRWLRVLNPDLVKG, the protein stability index came out at 2.15.
In the case of FPNRTDRQCQYRWLRVLNPDLVKG, the protein stability index turned out to be 2.63.
The result for FPNRTDPQCQYRWLRVLNPDLVKG reads 2.17.
The result for FPNRTDVQCQYRWLRVLNPDLVKG reads 1.85.
With FPNRTDTQCQYRWLRVLNPDLVKG the figure was 1.72; with FPNRTDLQCQYRWLRVLNPDLVKG, 1.69.
FPNRTDSQCQYRWLRVLNPDLVKG: the protein stability index came to 1.82.
Consider FPNRTDWQCQYRWLRVLNPDLVKG, for which the protein stability index is 2.29.
For FPNRTDHQCQYRWLRVLNPDLVKG, the protein stability index worked out at 2.05.
The result for FPNRTDKQCQYRWLRVLNPDLVKG reads 1.8.
With FPNRTDDQCQYRWLRVLNPDLVKG the figure was 2.3.
In the case of FPNRTDGQCQYRWLRVLNPDLVKG, the protein stability index was 2.96.
With FPNRTDAQCQYRWLRVLNPDLVKG the figure was 2.53; with FPNRTDIQCQYRWLRVLNPDLVKG, 2.07.
With FPNRTDMQCQYRWLRVLNPDLVKG the figure was 1.96; with FPNRTDNQCQYRWLRVLNPDLVKG, 2.38.
As for FPNRTDFQCQYRWLRVLNPDLVKG, the protein stability index stood at 1.67.
With FPNRTDCQCQYRWLRVLNPDLVKG the figure was 1.94; with FPNRTDYQCQYRWLRVLNPDLVKG, 1.61.
As to FPNRVDQQCQYRWLRVLNPDLVKG, the protein stability index was 1.8.
The result for FPNRMDQQCQYRWLRVLNPDLVKG reads 2.33; that for FPNRYDQQCQYRWLRVLNPDLVKG, 1.95.
As for FPNRWDQQCQYRWLRVLNPDLVKG, the protein stability index is 2.
With FPNRNDQQCQYRWLRVLNPDLVKG the figure was 2.01.
The result for FPNRLDQQCQYRWLRVLNPDLVKG reads 1.64.
On to FPNRSDQQCQYRWLRVLNPDLVKG, for which the protein stability index worked out at 1.86.
With FPNRGDQQCQYRWLRVLNPDLVKG, the protein stability index amounted to 1.53.
The result for FPNRHDQQCQYRWLRVLNPDLVKG reads 1.74.
With FPNRPDQQCQYRWLRVLNPDLVKG, the protein stability index was 2.05.
Turning to FPNRRDQQCQYRWLRVLNPDLVKG, the protein stability index stood at 1.73.
Consider FPNRQDQQCQYRWLRVLNPDLVKG, for which the protein stability index turned out to be 1.76.
The result for FPNRKDQQCQYRWLRVLNPDLVKG reads 2.29; that for FPNRIDQQCQYRWLRVLNPDLVKG, 2.29.
FPNRTDQQCQYEWLRVLNPDLVKG: the protein stability index came out at 1.74.
As for FPNRTDQQCQYYWLRVLNPDLVKG, the protein stability index amounted to 2.46.
Turning to FPNRTDQQCQYHWLRVLNPDLVKG, the protein stability index stood at 3.76.
Take FPNRTDQQCQYQWLRVLNPDLVKG: the protein stability index came to 2.21.
In the case of FPNRTDQQCQYPWLRVLNPDLVKG, the protein stability index turned out to be 1.96.
